# Reference: PMC9535869, “A novel nuclear receptor subfamily enlightens the origin of heterodimerization”
# B1: DR0 (dsDNA)
# DNA 1: GATTTGAGGTCAAGGTCACACAGTTA
# DNA 2: TAACTGTGTGACCTTGACCTCAAATC
# B2: IR3 (dsDNA)
# DNA 1: GATTTGAGGTCACAGTGACCTCACAG
# DNA 2: CTGTGAGGTCACTGTGACCTCAAATC
# B3: DR1 (dsDNA)
# DNA 1: GATTTGAGGTCAGAGGTCACACAGTT
# DNA 2: AACTGTGTGACCTCTGACCTCAAATC
# B4: DR4 (dsDNA)
# DNA 1: ATTTGAGGTCACAGGAGGTCACACAG
# DNA 2: CTGTGTGACCTCCTGTGACCTCAAAT
# What was measured:
# Conditions in all cases: protein: recombinant; tags: His6 tag, cleaved by thrombin; chain copies: 2
# [1] = biological target: T1, NR7 deltaA/B (called full-length NR7), homodimer (Branchiostoma lanceolatum, UniProt A0A6B9UN24 30-389); test: SEC-nMS; homodimer on DNA, 102405 Da; Oligos annealed in 10 mM Tris-HCl pH 8.0, 100 mM NaCl, 0.1 mM EDTA; protein dimer:DNA 1:1.2; native 8% PAGE in 60 mM Tris/40 mM CAPS pH 9.4, pre-run at 4 C; SEC-nMS buffer not given in the material
# T1 sequence (A0A6B9UN24 entry or part of it mutant): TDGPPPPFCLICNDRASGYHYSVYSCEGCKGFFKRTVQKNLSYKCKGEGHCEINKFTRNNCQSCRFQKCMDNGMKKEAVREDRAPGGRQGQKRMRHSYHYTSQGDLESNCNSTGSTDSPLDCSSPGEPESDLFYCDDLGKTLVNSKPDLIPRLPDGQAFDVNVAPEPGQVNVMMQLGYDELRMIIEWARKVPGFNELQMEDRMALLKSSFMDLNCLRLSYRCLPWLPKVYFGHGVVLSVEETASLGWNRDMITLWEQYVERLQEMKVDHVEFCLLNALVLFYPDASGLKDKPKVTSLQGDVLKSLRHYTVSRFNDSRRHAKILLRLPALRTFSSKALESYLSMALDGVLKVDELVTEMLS
# [2] = biological target: T1, NR7 deltaA/B (called full-length NR7), …; test: SEC-nMS; NR7 and RXR mixture; Oligos annealed in 10 mM Tris-HCl pH 8.0, 100 mM NaCl, 0.1 mM EDTA; protein dimer:DNA 1:1.2; native 8% PAGE in 60 mM Tris/40 mM CAPS pH 9.4, pre-run at 4 C; SEC-nMS buffer not given in the material
# [3] = biological target: T1, NR7 deltaA/B (called full-length NR7), …; test: SEC-nMS; Oligos annealed in 10 mM Tris-HCl pH 8.0, 100 mM NaCl, 0.1 mM EDTA; protein dimer:DNA 1:1.2; native 8% PAGE in 60 mM Tris/40 mM CAPS pH 9.4, pre-run at 4 C; SEC-nMS buffer not given in the material
binder,measurement,setting,value
B1,binding result,[1],binds
B2,binding result,[2],binds
B3,binding result,[3],binds
B4,binding result,[3],binds
